Key:
[1] = molecular target: PCNA (endogenous, in human cells and their extracts) (human) (UniProt P12004); test: co-IP with anti-PCNA antibody from formaldehyde-crosslinked HaCaT cell extract, gel, Orbitrap MS
MK2 (human) = MK2 (human) (UniProt P49137); test: mock co-IP with anti-TOM20 antibody from crosslinked HaCaT cell extract, Orbitrap MS
PACT (human) = PACT (human) (UniProt O75569); test: as above
TAO1 (human) = TAO1 (human) (UniProt Q7L7X3); test: as above
[2] = molecular target: T1, PCNA labeled with a fluorescent molecule (UniProt P12004 1-261, labeled with a fluorescent molecule (dye and site not stated)); test: microscale thermophoresis, fluorescently labelled PCNA, peptide titrated
T1 construct: also called proliferating cell nuclear antigen
Procedure: Microscale thermophoresis (MST) was used to determine the dissociation constant for various APIM containing peptides.
PCNA was labeled with a fluorescent molecule. The concentration of PCNA was kept constant, whereas dilutions of each APIM containing peptide were prepared (1:1).

Chain of PCNA (endogenous, in human cells and their extracts) (human) (P12004 whole entry): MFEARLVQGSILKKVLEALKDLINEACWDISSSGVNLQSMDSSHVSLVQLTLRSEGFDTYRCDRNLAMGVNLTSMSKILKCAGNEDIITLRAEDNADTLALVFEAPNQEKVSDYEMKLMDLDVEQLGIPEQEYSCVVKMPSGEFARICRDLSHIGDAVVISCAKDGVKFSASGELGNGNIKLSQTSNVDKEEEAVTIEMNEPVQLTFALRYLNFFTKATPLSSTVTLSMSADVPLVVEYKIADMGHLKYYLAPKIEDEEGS
Chain of PACT (human) (O75569 whole entry): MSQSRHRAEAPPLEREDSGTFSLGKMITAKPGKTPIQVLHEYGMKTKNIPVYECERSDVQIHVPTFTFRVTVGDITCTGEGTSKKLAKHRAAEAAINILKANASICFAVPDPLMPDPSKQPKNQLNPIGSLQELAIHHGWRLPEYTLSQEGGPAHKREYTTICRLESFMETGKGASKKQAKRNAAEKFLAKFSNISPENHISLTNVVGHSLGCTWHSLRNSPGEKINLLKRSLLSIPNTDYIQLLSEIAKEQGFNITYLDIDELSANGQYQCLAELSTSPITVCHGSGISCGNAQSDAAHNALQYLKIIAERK
T1 sequence (P12004 whole entry): as the sequence (P12004 whole entry) above
Chain of TAO1 (human) (Q7L7X3 whole entry): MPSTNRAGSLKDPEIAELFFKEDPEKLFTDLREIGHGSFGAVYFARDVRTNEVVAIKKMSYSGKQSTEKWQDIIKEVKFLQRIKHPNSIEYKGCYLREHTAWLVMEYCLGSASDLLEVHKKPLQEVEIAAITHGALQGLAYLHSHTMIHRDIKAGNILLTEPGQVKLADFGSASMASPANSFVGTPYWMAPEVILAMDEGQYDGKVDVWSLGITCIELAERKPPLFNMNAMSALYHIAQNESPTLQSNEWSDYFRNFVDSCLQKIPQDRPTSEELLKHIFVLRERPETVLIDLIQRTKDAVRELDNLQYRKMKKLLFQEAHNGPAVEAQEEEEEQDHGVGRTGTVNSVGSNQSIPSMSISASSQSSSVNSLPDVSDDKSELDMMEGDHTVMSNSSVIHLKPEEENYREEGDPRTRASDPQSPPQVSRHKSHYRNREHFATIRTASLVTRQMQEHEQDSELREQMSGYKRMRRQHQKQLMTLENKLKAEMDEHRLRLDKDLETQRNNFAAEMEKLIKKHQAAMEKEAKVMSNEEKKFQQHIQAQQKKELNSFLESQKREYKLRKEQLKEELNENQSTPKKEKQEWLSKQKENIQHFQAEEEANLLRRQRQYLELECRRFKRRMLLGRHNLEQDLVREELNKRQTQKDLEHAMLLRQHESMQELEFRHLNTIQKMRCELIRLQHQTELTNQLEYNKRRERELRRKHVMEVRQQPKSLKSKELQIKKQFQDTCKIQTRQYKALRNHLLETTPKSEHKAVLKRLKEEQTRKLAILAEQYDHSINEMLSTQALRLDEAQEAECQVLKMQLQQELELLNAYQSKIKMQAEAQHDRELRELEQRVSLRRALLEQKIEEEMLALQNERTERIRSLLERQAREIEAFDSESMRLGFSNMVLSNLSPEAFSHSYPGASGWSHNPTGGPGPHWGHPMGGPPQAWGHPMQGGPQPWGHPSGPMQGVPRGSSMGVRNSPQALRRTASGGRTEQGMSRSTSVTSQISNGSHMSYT
Chain of MK2 (human) (P49137 whole entry): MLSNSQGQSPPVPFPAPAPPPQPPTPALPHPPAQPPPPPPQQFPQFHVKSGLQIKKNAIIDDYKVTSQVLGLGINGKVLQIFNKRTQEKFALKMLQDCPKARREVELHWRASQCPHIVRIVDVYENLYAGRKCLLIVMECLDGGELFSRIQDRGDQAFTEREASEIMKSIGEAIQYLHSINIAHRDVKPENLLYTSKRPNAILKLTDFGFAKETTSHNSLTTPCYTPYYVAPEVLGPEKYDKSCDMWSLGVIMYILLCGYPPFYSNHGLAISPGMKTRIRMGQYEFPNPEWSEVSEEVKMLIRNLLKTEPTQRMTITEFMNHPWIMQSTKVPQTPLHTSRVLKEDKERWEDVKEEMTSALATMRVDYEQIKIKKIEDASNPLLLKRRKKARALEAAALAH

Molecule	Mascot score (PCNA pull down) [1]	Sequest score (PCNA pull down) [1]	also measured
MK2 (from UniProt P49137 1-400) (enzyme)	27.6	6.33	–
PACT (from UniProt O75569 1-313)	23	2.06	–
TAO1 (from UniProt Q7L7X3 1-1001) (enzyme)	49.8	11.1	–
TOM20 (from UniProt Q15388 1-145)	–	–	Mascot-score (PCNA pull down) [1]: 32.5
mock antibody specific for TOM20	–	–	Sequest score (mock anti-TOM20 pull down) (MK2 (human)): 1.79; Mascot score (mock anti-TOM20 pull down) (PACT (human)): 25.1; Sequest score (mock anti-TOM20 pull down) (PACT (human)): 1.61; Sequest score (mock anti-TOM20 pull down) (TAO1 (human)): 2.09
RRRRRRRRRRR (Cell penetrating peptide part alone, used as a control; also called R11 peptide; R11 (negative control)) [R11]	–	–	binding result [2]: no binding
